Values of other authors, collected in paper PMC4512752.
Where two headings read alike, the source gives them in different places. One block for each substance: values may come before it.

Experiments:
Test in all cases: MALLS
[1] = molecular target: Arrestin-1 (Homo sapiens) (UniProt P10523)
[2] = molecular target: Arrestin-1 (Mus musculus) (UniProt P20443)
[3] = molecular target: Arrestin-2 (Bos taurus) (UniProt P17870)
[4] = molecular target: Arrestin-2 (Bos taurus) (UniProt P17870); remark: listed apart in the source
[5] = molecular target: Arrestin-3 (Bos taurus) (UniProt P32120)
[6] = molecular target: Arrestin-3 (Bos taurus) (UniProt P32120); remark: listed apart in the source

Kd [1]: 2.95 µM
Substance: Arrestin-1 (from UniProt P10523)

Kd [2]: 57.5 µM
Substance: Arrestin-1 (from UniProt P20443)

Kd [3]: 100 µM | Kd [4]: 5.5 µM
Substance: Arrestin-2 (from UniProt P17870)

Kd [5]: 100 µM | Kd [6]: 7.8 µM
Substance: Arrestin-3 (from UniProt P32120)
